{
  "source": "paper PMC6148051",
  "about": "“p53 cooperates with SIRT6 to regulate cardiolipin de novo biosynthesis” (Cell Death & Disease, 2018)",
  "molecular_target": "T1, His-tagged p53 protein (UniProt P04637 1-393)",
  "T1 construct": "tumor suppressor p53, cloned into pET28b+; also called His-p53; source: bacteria (pET28b+), purified (Ni(II)-Sepharose)",
  "T1 sequence (P04637 whole entry, the tested form may be a part)": "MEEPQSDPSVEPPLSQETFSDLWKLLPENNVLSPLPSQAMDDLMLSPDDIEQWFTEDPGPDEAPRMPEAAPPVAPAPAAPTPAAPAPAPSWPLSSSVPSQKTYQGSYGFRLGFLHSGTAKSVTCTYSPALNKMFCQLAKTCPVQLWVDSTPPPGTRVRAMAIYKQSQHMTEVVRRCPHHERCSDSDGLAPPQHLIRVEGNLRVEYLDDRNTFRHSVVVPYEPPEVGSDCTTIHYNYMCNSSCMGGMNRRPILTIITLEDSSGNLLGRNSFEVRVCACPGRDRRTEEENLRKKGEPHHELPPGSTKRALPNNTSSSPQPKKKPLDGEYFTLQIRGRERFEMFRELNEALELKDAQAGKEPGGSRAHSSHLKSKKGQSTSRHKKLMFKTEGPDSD",
  "assay": "pull-down; GST or GST fusion proteins on glutathione-Sepharose 4B beads incubated with purified His-tagged proteins in TEN buffer (10 mM Tris-HCl, pH 8.0, 1 mM EDTA, 100 mM NaCl), 4 h, 4 °C; blot with anti-His or anti-GST, Coomassie staining",
  "settings": "both partners purified",
  "data": [
    {"binder": "GST-SIRT6 core domain, 35–276 aa (domain or fragment, UniProt Q8N6T7 35-276, looked up, source: bacteria, purified (glutathione-Sepharose 4B)) WELARLVWQSSSVVFHTGAGISTASGIPDFRGPHGVWTMEERGLAPKFDTTFESARPTQTHMALVQLERVGLLRFLVSQNVDGLHVRSGFPRDKLAELHGNMFVEECAKCKTQYVRDTVVGTMGLKATGRLCTVAKARGLRACRGELRDTILDWEDSLPDRDLALADEASRNADLSITLGTSLQIRPSGNLPLATKRRGGRLVIVNLQPTKHDRHADLRIHGYVDEVMTRLMKHLGLEIPAW", "values": [
      {"measurement": "binding result", "result": "binds"}
    ]}
  ]
}
